The source of these data is paper PMC6739812 (Protein Science : A Publication of the Protein Society, 2019).

This data set deals with the molecule itself. The data set is described as follows: SEC-MALS. A general note: SEC sorts molecules by how far they enter the pores of the column.

B1: InvCΔ79 (Salmonella T3SS ATPase InvC lacking the first 79 residues, with C-terminal Strep-tag) (domain or fragment, Salmonella typhimurium, UniProt P0A1B9 80-431, looked up)
chain: GRALSAWVGYSVLGAVLDPTGKIVERFTPEVAPISEERVIDVAPPSYASRVGVREPLITGVRAIDGLLTCGVGQRMGIFASAGCGKTMLMHMLIEQTEADVFVIGLIGERGREVTEFVDMLRASHKKEKCVLVFATSDFPSVDRCNAAQLATTVAEYFRDQGKRVVLFIDSMTRYARALRDVALASGERPARRGYPASVFDNLPRLLERPGATSEGSITAFYTVLLESEEEADPMADEIRSILDGHLYLSRKLAGQGHYPAIDVLKSVSRVFGQVTTPTHAEQASAVRKLMTRLEELQLFIDLGEYRPGENIDNDRAMQMRDSLKAWLCQPVAQYSSFDDTLSGMNAFADQN
Broadly, the stoichiometry N is the number of molecules, sites or subunits per partner or assembly. As to B1, the “stoichiometry N” value was found to be 2.
